For seven molecules, Km results are on record in patent US6803501B2 (Monsanto Technology, LLC, priority 2000, dated 2004).

Series [1] has as its target T1, P. hybrida glypS (wt) EPSPS (Petunia hybrida, glyphosate sensitive, wild type) (Petunia hybrida, UniProt P11043).
T1 sequence (P11043 73-516): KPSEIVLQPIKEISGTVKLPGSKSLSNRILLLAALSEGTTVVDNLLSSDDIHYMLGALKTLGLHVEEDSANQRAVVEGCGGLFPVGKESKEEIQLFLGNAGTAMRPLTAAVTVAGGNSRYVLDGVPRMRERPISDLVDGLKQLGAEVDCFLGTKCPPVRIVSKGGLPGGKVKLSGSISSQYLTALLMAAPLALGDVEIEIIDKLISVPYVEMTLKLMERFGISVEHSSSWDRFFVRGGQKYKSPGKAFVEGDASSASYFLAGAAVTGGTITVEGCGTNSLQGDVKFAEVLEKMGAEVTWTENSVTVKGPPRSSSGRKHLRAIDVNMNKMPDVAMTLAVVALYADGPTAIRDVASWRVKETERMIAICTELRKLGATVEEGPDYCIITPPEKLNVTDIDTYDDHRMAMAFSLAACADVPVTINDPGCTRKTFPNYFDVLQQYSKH
Put plainly: kinetic characterization of EPSP synthase (Table 4). Format: biochemical. Particulars: read-out: apparent Km for PEP; saturating shikimate-3-phosphate. The method, then: Final sample volumes are approximately 0.5 ml.

Substrate in series [2]: C=C(OP(=O)(O)O)C(=O)O
Briefly: purified protein, by the assay type. Particulars: other: saturating shikimate-3-phosphate; 25.0 °C.

Substrate in series [3]: C=C(OP(=O)(O)O)C(=O)O
Put plainly: kinetic characterization of EPSP synthase (Table 4). Format: biochemical, Petunia hybrida. Particulars: other: saturating shikimate-3-phosphate; 25.0 °C.

Substrate in series [4]: C=C(OP(=O)(O)O)C(=O)O
Briefly: cells, lysate or membranes named. Particulars: other: saturating shikimate-3-phosphate; 25.0 °C.

The Km is the substrate concentration at which the rate is half of its maximum. Take `C=C(OP(=O)(O)O)C(=O)O` [PEP, phosphoenolpyruvate]: the Km in series [1] was determined as 5 µM.

B1: E. indica glypS EPSPS (Eleusine indica, naturally occurring glyphosate sensitive, wild type) (Eleusine indica) (protein)
chain: AGAEEVVLQPIKEISGVVKLPGSKSLSNRILLLSALAEGTTVVDNLLNSEDVHYMLGALKTLGLSVEADKAAKRAVVVGCGGKFPVEKDAKEEVQLFLGNAGTAMRPLTAAVTAAGGNATYVLDGVPRMRERPIGDLVVGLKQLGADVDCFLGTDCPPVRVKGIGGLPGGKVKLSGSISSQYLSALLMAAPLALGDVEIEIIDKLISIPYVEMTLRLMERFGVKAEHSDSWDRFYIKGGQKYKSPKNAYVEGDASSASYFLAGAAITGGTVTVEGCGTTSLQGDVKFAEVLEMMGAKVTWTETSVTVTGPQREPFGRKHLKAIDVNMNKMPDVAMTLAVVALFADGPTAIRDVASWRVKETERMVAIRTELTKLGASVEEGPDYCIITPPEKLNVTAIDTYDDHRMAMAFSLAACADVPVTIRDPGCTRKTFPDYFDVLSTFVKN
With B1, the Km in series [2] is 5 µM.

B2: E. indica glypR (Pro-Ser) EPSPS (Eleusine indica, naturally occurring glyphosate resistant, serine for proline at position 107, SEQ ID NO:7) (Eleusine indica) (protein)
chain: AGAEEVVLQPIKEISGVVKLPGSKSLSNRILLLSALAEGTTVVDNLLNSEDVHYMLGALKTLGLSVEADKAAKRAVVVGCGGKFPVEKDAKEEVQLFLGNAGTAMRSLTAAVTAAGGNATYVLDGVPRMRERPIGDLVVGLKQLGADVDCFLGTDCPPVRVKGIGGLPGGKVKLSGSISSQYLSALLMAAPLALGDVEIEIIDKLISIPYVEMTLRLMERFGVKAEHSDSWDRFYIKGGQKYKSPKNAYVEGDASSASYFLAGAAITGGTVTVEGCGTTSLQGDVKFAEVLEMMGAKVTWTETSVTVTGPQREPFGRKHLKAIDVNMNKMPDVAMTLAVVALFADGPTAIRDVASWRVKETERMVAIRTELTKLGASVEEGLDYCIITPPEKLNVTAIDTYDDHRMAMAFSLAACADVPVTIRDPGCTRKTFPDYFDVLSTFVKN
With B2, the Km in series [2] was 7 µM.

B3: P. hybrida EPSPS variant glypR (Pro-Ser) (Petunia x hybrida; P178S) (protein)
chain: KPSEIVLQPIKEISGTVKLPGSKSLSNRILLLAALSEGTTVVDNLLSSDDIHYMLGALKTLGLHVEEDSANQRAVVEGCGGLFPVGKESKEEIQLFLGNAGTAMRSLTAAVTVAGGNSRYVLDGVPRMRERPISDLVDGLKQLGAEVDCFLGTKCPPVRIVSKGGLPGGKVKLSGSISSQYLTALLMAAPLALGDVEIEIIDKLISVPYVEMTLKLMERFGISVEHSSSWDRFFVRGGQKYKSPGKAFVEGDASSASYFLAGAAVTGGTITVEGCGTNSLQGDVKFAEVLEKMGAEVTWTENSVTVKGPPRSSSGRKHLRAIDVNMNKMPDVAMTLAVVALYADGPTAIRDVASWRVKETERMIAICTELRKLGATVEEGPDYCIITPPEKLNVTDIDTYDDHRMAMAFSLAACADVPVTINDPGCTRKTFPNYFDVLQQYSKH
For the molecule B3, the Km in series [3] was 44 µM.

B4: P. hybrida EPSPS variant glypR (Gly-Ala, Pro-Ser) (Petunia x hybrida; G173A/P178S) (protein)
chain: KPSEIVLQPIKEISGTVKLPGSKSLSNRILLLAALSEGTTVVDNLLSSDDIHYMLGALKTLGLHVEEDSANQRAVVEGCGGLFPVGKESKEEIQLFLGNAATAMRSLTAAVTVAGGNSRYVLDGVPRMRERPISDLVDGLKQLGAEVDCFLGTKCPPVRIVSKGGLPGGKVKLSGSISSQYLTALLMAAPLALGDVEIEIIDKLISVPYVEMTLKLMERFGISVEHSSSWDRFFVRGGQKYKSPGKAFVEGDASSASYFLAGAAVTGGTITVEGCGTNSLQGDVKFAEVLEKMGAEVTWTENSVTVKGPPRSSSGRKHLRAIDVNMNKMPDVAMTLAVVALYADGPTAIRDVASWRVKETERMIAICTELRKLGATVEEGPDYCIITPPEKLNVTDIDTYDDHRMAMAFSLAACADVPVTINDPGCTRKTFPNYFDVLQQYSKH
Consider B4, for which the Km in series [3] was 340 µM.

B5: P. hybrida EPSPS variant glypR (Gly-Ala) (Petunia x hybrida; G173A) (protein)
chain: KPSEIVLQPIKEISGTVKLPGSKSLSNRILLLAALSEGTTVVDNLLSSDDIHYMLGALKTLGLHVEEDSANQRAVVEGCGGLFPVGKESKEEIQLFLGNAATAMRPLTAAVTVAGGNSRYVLDGVPRMRERPISDLVDGLKQLGAEVDCFLGTKCPPVRIVSKGGLPGGKVKLSGSISSQYLTALLMAAPLALGDVEIEIIDKLISVPYVEMTLKLMERFGISVEHSSSWDRFFVRGGQKYKSPGKAFVEGDASSASYFLAGAAVTGGTITVEGCGTNSLQGDVKFAEVLEKMGAEVTWTENSVTVKGPPRSSSGRKHLRAIDVNMNKMPDVAMTLAVVALYADGPTAIRDVASWRVKETERMIAICTELRKLGATVEEGPDYCIITPPEKLNVTDIDTYDDHRMAMAFSLAACADVPVTINDPGCTRKTFPNYFDVLQQYSKH
For B5, in series [3], the Km amounted to 200 µM.

B6: Z. mays glypS (wt) EPSPS (Zea mays, glyphosate sensitive, wild type) (Zea mays) (protein)
chain: AGAEEIVLQPIKEISGTVKLPGSKSLSNRILLLAALSEGTTVVDNLLNSEDVHYMLGALRTLGLSVEADKAAKRAVVVGCGGKFPVEDSKEEVQLFLGNAGTAMRPLTAAVTAAGGNATYVLDGVPRMRERPIGDLVVGLKQLGADVDCFLGTDCPPVRVNGIGGLPGGKVKLSGSISSQYLSALLMAAPLALGDVEIEIIDKLISIPYVEMTLRLMERFGVKAEHSDSWDRFYIKGGQKYKSPKNAYVEGDASSASYFLAGAAITGGTVTVEGCGTTSLQGDVKFAEVLEMMGAKVTWTETSVTVTGPPREPFGRKHLKAIDVNMNKMPDVAMTLAVVALFADGPTAIRDVASWRVKETERMVAIRTELTKLGASVEEGPDYCIITPPEKLNVTAIDTYDDHRMAMAFSLAACAEVPVTIRDPGCTRKTFPDYFDVLSTFVKN
B6: the Km in series [4] is 5 µM.
